One may read the Kd as the constant that tells how readily two partners part at equilibrium. A low value points to a tighter complex.

We go through two molecules from patent publication US20250000946A1 (WUXI BIOLOGICS IRELAND, published 2025).

The target in test [1] is T1, W3XX115-T2U0.E44-6.uIgG4V322 (human, UniProt P60568 21-149).
T1 construct: IL-2 del STLT; E44 format, IgG4 FALA; IL-2 part tied by the design 'Del STLT'; not shown: IgG4 hinge-Fc with FALA (uIgG4V322), no linker
Briefly: SPR Biacore 8K; variant captured via anti-human Fc, IL-2Rα ECD-His injected; steady state. The protocol:
IL-2 variants binding affinity to IL-2 receptor were detected by SPR using Biacore 8K. For IL-2Rα binding assay, each variant was captured on anti-human Fc immobilized CM5 sensor chip (cytiva). W3XX115-hPro1.ECD.His at different concentrations were injected over the sensor chip at a flow rate of 30 uL/min for an association phase of 60 s, followed by 90 s dissociation. The chip was then regenerated by 10 mM Glycine-HCl pH1.5 after each binding cycle. For IL-2Rγ binding assay, IL-2 variants were mixed with W369-hPro2.ECD.His as 1:1 before assay, were detected by SPR using Biacore 8K. W3XX115-hPro1.ECD.His was captured on anti-His immobilized CM5 sensor chip (cytiva). The mixture were injected over the sensor chip as described above. The sensorgrams of blank surface and buffer channel were subtracted from the test sensorgrams. The experimental data was fitted by steady state affinity model. Molecular weight of W3XX115-hPro1.ECD.His or W369-hPro1.ECD.His was used to calculate the molar concentration of analyte.
For T3U0.E44-1 and T2U0.E44-33, no binding to IL-2Rα was detected.
In general terms: In SPR one partner is held on a chip, and binding of the other changes the refractive index at the surface.

The target of test [2] is T1, W3XX115-T2U0.E44-6.uIgG4V322. Nature of the test: SPR Biacore 8K; set-up for IL-2Rβ not described.

B1: W3XX115-hPro1.ECD.His, IL2Rα ECD (receptor)
chain: ELCDDDPPEIPHATFKAMAYKEGTMLNCECKRGFRRIKSGSLYMLCTGNSSHSSWDNQCQCTSSATRNTTKQVTPQPEEQKERKTTEMQSPMQPVDQASLPGHCREPPPWENEATERIYHFVVGQMVYYQCVQGYRALHRGPAESVCKMTHGKTRWTQPQLICTGEMETSQFPGEEKPQASPEGRPESETSCHHHHHH
notes: Entry includes the C-terminal 6xHis tag; also called CD25
In turn, B1 had a dissociation constant Kd in test [1] of 98.2 nM. That is a double-digit nanomolar value.

B2: W369-hPro2.ECD.His, IL2Rβ ECD (receptor)
chain: AVNGTSQFTCFYNSRANISCVWSQDGALQDTSCQVHAWPDRRRWNQTCELLPVSQASWACNLILGAPDSQKLTTVDIVTLRVLCREGVRWRVMAIQDFKPFENLRLMAPISLQVVHVETHRCNISWEISQASHYFERHLEFEARTLSPGHTWEEAPLLTLKQKQEWICLETLTPDTQYEFQVRVKPLQGEFTTWSPWSQPLAFRTKPAALGKDLEGGGGSGGGGHHHHHH
notes: Entry includes linker and C-terminal 6xHis tag; also called CD122
In test [2], B2 came in with a dissociation constant Kd of 1010 nM.
